Measurements as given in paper PMC4938167, “Structural Insights into the Polyphyletic Origins of Glycyl tRNA Synthetases*^([image sbox.jpg])^♦” (The Journal of Biological Chemistry, 2016).

Legend:
α-AaGlyRS = target: T1, α-AaGlyRS (Aquifex aeolicus, UniProt O67081); experiment: thermal shift assay, SYPRO Orange; format: binding; settings: 8 mM GSAd; reference Tm without ligand 83.2 °C; 25 mM NaH2PO4, 25 mM KCl, 10 mM MgCl2
T1 construct: gene glyQ; alpha subunit alone of alpha2beta2 GlyRS; synthetic codon-optimised gene in pET-28, N-terminal His6 (His tag/TEV residues kept), E. coli BL21(DE3)

[1] = target: the molecule itself; experiment: SEC-MALS; Superdex S-75 10/300 analytical column, 0.5 ml/min, DAWN Heleos-II and Optilab RI detectors; protein loaded after concentration to 15 mg/ml; one peak with 99.9% of the injected mass
purified protein = substrate: NCC(=O)O; experiment: purified protein; format: biochemical, Aquifex aeolicus; settings: 0.5 mM ATP, 10 mM MgCl2, 50 mM Tris pH 8.0, 50 mM KCl, 45 °C, 40 μM enzyme, alpha subunit alone

| Molecule | Tm with 8 mM ligand (α-AaGlyRS) | stoichiometry N [1] | Km (purified protein) | kcat (purified protein) |
| --- | --- | --- | --- | --- |
| NCC(=O)NS(=O)(=O)OC[C@H]1O[C@@H](n2cnc3c(N)ncnc32)[C@H](O)[C@@H]1O [GSAd, 5′-O-[N-(L-glycyl)sulfamoyl] adenosine] | 92.3 °C | – | – | – |
| α-subunit of the α2β2 glycyl tRNA synthetase (GlyRS) from Aquifex aeolicus (enzyme, Glycyl tRNA synthetase α-subunit, Aquifex aeolicus; synthetic cDNA (Genscript), codon-optimised for E. coli, in pET-28; No cleavage of the tag is described; The theoretical mass of the dimer is printed as 67.4 kDa; Crystals were soaked with the glycyl adenylate analog GSAd; also called α-AaGlyRS; α-subunit GlyRS; source: E. coli BL21(DE3), purified (heat treatment 75 °C, Ni2+-Sepharose, size …)) MYFQDIIMTLHKFWAEKGCLIWQPYDVEVGAGTMNPATFLKVLGKKPWNVAYVEPSRRPQDGRYGENPNRLQHYYQFQVILKPAPRNPQEIYLESLERLGINPLEHDIRFVEDDWESPTLGAWGLGWEVWLDGMEITQFTYFQQAGGLDLDEISVEITYGLERIAMYIQDKDSVFDIEWKEGITYGEIFKRSEWEWSKYNFELADTDMLFQVYEMFEKESKRMVEEGLIFPAYDYLLKCSHVFNILDARGAISVQERARYIRRMNNLAREIAKLYLQVFENVGAT | – | 2 | 110 ± 16 µM | 0.00023 s⁻¹ |
